According to US20230265170A1:

What was measured:
Assay in all cases: cell-based or functional assay
[1] = target: SARS-CoV-2 Omicron BA.1 spike (S) protein (SARS-CoV-2)
[2] = target: SARS-CoV-2 Omicron BA.2 spike (S) protein (SARS-CoV-2)
[3] = target: SARS-CoV-2 Omicron BA.3 spike (S) protein (SARS-CoV-2)

Sequence of AZD8895 (antibody) (VH): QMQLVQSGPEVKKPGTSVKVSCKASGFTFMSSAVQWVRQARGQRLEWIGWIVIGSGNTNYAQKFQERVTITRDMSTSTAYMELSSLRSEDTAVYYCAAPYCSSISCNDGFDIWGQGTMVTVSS
Sequence of AZD8895 (antibody) (VL): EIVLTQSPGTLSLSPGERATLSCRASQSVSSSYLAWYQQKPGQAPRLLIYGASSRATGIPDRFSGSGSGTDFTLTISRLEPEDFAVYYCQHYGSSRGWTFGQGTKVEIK

Substance: ADG10 (antibody)
- IC50, pseudoviral neutralization [1]: > 10 µg/mL
- IC50, pseudoviral neutralization [2]: > 10 µg/mL
- IC50, pseudoviral neutralization [3]: > 10 µg/mL

Substance: ADG20 (antibody)
- IC50, pseudoviral neutralization [1]: 0.348 µg/mL
- IC50, pseudoviral neutralization [2]: > 10 µg/mL
- IC50, pseudoviral neutralization [3]: > 10 µg/mL

Substance: ADG30 (antibody)
- IC50, pseudoviral neutralization [1]: > 10 µg/mL
- IC50, pseudoviral neutralization [2]: > 10 µg/mL
- IC50, pseudoviral neutralization [3]: > 10 µg/mL

Substance: AZD1061 (antibody)
- IC50, pseudoviral neutralization [1]: 0.308 µg/mL
- IC50, pseudoviral neutralization [2]: 0.008 µg/mL
- IC50, pseudoviral neutralization [3]: 0.019 µg/mL

Substance: AZD8895 (antibody)
- IC50, pseudoviral neutralization [1]: 0.246 µg/mL
- IC50, pseudoviral neutralization [2]: 1.33 µg/mL
- IC50, pseudoviral neutralization [3]: > 10 µg/mL

Substance: Ly-CoV16 (antibody)
- IC50, pseudoviral neutralization [1]: > 10 µg/mL
- IC50, pseudoviral neutralization [2]: > 10 µg/mL
- IC50, pseudoviral neutralization [3]: > 10 µg/mL

Substance: Ly-CoV555 (antibody)
- IC50, pseudoviral neutralization [1]: > 10 µg/mL
- IC50, pseudoviral neutralization [2]: > 10 µg/mL
- IC50, pseudoviral neutralization [3]: > 10 µg/mL

Substance: Ly-CoV1404 (antibody)
- IC50, pseudoviral neutralization [1]: 0.002 µg/mL
- IC50, pseudoviral neutralization [2]: 0.001 µg/mL
- IC50, pseudoviral neutralization [3]: 0.002 µg/mL

Substance: REGN10933 (antibody)
- IC50, pseudoviral neutralization [1]: > 10 µg/mL
- IC50, pseudoviral neutralization [2]: > 10 µg/mL
- IC50, pseudoviral neutralization [3]: > 10 µg/mL

Substance: REGN10987 (antibody)
- IC50, pseudoviral neutralization [1]: > 10 µg/mL
- IC50, pseudoviral neutralization [2]: 0.516 µg/mL
- IC50, pseudoviral neutralization [3]: > 10 µg/mL

Substance: S309 (antibody)
- IC50, pseudoviral neutralization [1]: 0.313 µg/mL
- IC50, pseudoviral neutralization [2]: 0.638 µg/mL
- IC50, pseudoviral neutralization [3]: 0.311 µg/mL
